Results: patent US20250250357A1 (NANJING ZAIMING PHARMACEUTICAL, published 2025)

T1: human MSLN-R1-his protein (human, UniProt Q13421 296-390)
T1 construct: also called hMSLN-R1-his; human MSLN-R1 protein; not shown: His tag
T1 chain: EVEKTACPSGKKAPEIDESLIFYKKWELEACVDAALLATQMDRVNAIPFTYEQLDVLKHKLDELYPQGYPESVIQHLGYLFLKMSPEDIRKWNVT


Assays:
[1] = target: T2, human MSLN-FL-his protein (human, UniProt Q13421 296-580); assay: ELISA, coated antigen; no antibody (blank, column 'none')
T2 construct: also called hMSLN-FL-his; human MSLN full-length protein; not shown: His tag

[2] = target: T2, human MSLN-FL-his protein; assay: ELISA, coated antigen; antibody 0.01 nM
Method: (§1) The plate was sealed with a plastic film and incubated at 4° C. overnight. The next day, the plate was washed twice with PBST, and a blocking buffer [PBS+2% (w/w) BSA] was added for blocking at room temperature for 2 h. The blocking buffer was discarded, and a chimeric antibody or negative control antibody serially diluted from 100 nM was added at 50 μL/well. After incubation at 37° C. for 2 h, the plate was washed 3 times with PBST. […] After incubation at 37° C. for 2 h, the plate was washed 5 times with PBST. A TMB substrate was added at 50 μL/well for incubation at room temperature for 5-10 min, and then a stop solution (1.0 N HCl) was added at 50 μL/well.

[3] = target: T1, human MSLN-R1-his protein; assay: ELISA, coated antigen; antibody 0.1 nM
Method: as §1

[4] = target: T1, human MSLN-R1-his protein; assay: ELISA, coated antigen; antibody 100 nM
Method: as §1

[5] = target: T2, human MSLN-FL-his protein; assay: ELISA, coated antigen; antibody 0.001 nM
Method: as §1

[6] = target: T1, human MSLN-R1-his protein; assay: ELISA, coated antigen; antibody 0.01 nM
Method: as §1

[7] = target: T1, human MSLN-R1-his protein; assay: ELISA, coated antigen; antibody 0.001 nM
Method: as §1

[8] = target: T2, human MSLN-FL-his protein; assay: ELISA, coated antigen; antibody 0.0001 nM
Method: as §1

[9] = target: T2, human MSLN-FL-his protein; assay: ELISA, coated antigen; antibody 0.1 nM
Method: as §1

[10] = target: T1, human MSLN-R1-his protein; assay: ELISA, coated antigen; antibody 1 nM
Method: as §1

[11] = target: T2, human MSLN-FL-his protein; assay: ELISA, coated antigen; antibody 10 nM
Method: as §1

[12] = target: T2, human MSLN-FL-his protein; assay: ELISA, coated antigen; antibody 100 nM
Method: as §1

[13] = target: T1, human MSLN-R1-his protein; assay: ELISA, coated antigen; no antibody (blank, column 'none')
Method: as §1

[14] = target: T2, human MSLN-FL-his protein; assay: ELISA, coated antigen; antibody 1 nM
Method: as §1

[15] = target: T1, human MSLN-R1-his protein; assay: ELISA, coated antigen; antibody 0.0001 nM
Method: as §1

[16] = target: T1, human MSLN-R1-his protein; assay: ELISA, coated antigen; antibody 10 nM
Method: as §1

Binder	OD450 [1]	OD450 [2]	OD450 [3]	OD450 [4]	OD450 [5]	OD450 [6]	OD450 [7]	OD450 [8]	OD450 [9]	OD450 [10]	OD450 [11]	OD450 [12]	OD450 [13]	OD450 [14]	OD450 [15]	OD450 [16]
S009-F1.2.12 human-murine chimeric antibody (antibody, human IgG1, kappa, V domains shown, Chimeric IgG1/kappa) VH: QVQLKQTGPGLVQPSQSLSITCTVSGFSLTNYAVHWVRQSPGKGLEWLGVIWSGGATDYNTVFISRLSISKDNSKSQVFFKVNSLQVDDTAIYYCARTGSGYAMDYWGQGTSVTVSS VL: DIVLTQSPATLSVTPGDRVSLSCRTSHNVNTYLHWYQQKSHESPRLLIKYASQSISEIPSRFSGSGSGTNFTLSINSVETEDFGMYFCHQTNRWPLTFGAGTKLELKR	0.06	0.49	0.05	0.05	0.11	0.04	0.05	0.06	1.75	0.04	2.31	2.74	0.04	2.27	0.04	0.05
S009-F1.57.1 human-murine chimeric antibody (antibody, human IgG1, kappa, V domains shown, Chimeric IgG1/kappa) VH: EAQLQQSGAVFVKPGASVKLSCTASGFSSKDIFLHWVKQRPEQGLEWIGRIDPASDNTIYDPKFQDRATITSDRSSNTAYLQFSSLTSEDTAVYFCLYFDFWGQGTTLTVSS VL: DIVMTQATPSISVTPGESVSISCRSSESLLHSNGNTYLYWFLQRPGQSPQLLIYRMSNLASGVPDRFSVSGSGTAFTLRISRVEAEDVGVYYCMQHLEYPLTFGAGTKLELKR	0.05	0.15	0.03	0.07	0.06	0.05	0.04	0.05	0.82	0.03	2.42	2.51	0.05	2.03	0.04	0.04
S009-F1.35.24 human-murine chimeric antibody (antibody, human IgG1, kappa, V domains shown, Chimeric IgG1/kappa) VH: EVQLQQSEPELVKPGASVRISCKASGYSFTDYYMHWVKQSPENRLEWIGEINPSTGGTSYNPKFKDKATLTVDKSSSTAYMQLKSLTSEESAVYYCTRYHYYGSSSYVMDYWGQGTSVTVSS VL: QIVLTQSPAILSASPGERVTMTCSASSSVYHMHWFQQKSGTSPKRWVYDTSKLASGVPARFSGSGSGTSYSLTISSMEAEDAATYYCQHWRTNPLTFGAGTKLELKR	0.06	0.41	0.04	0.06	0.09	0.04	0.04	0.06	1.62	0.04	2.27	2.48	0.04	2.22	0.04	0.04
S009-F1.25.10 human-murine chimeric antibody (antibody, human IgG1, kappa, V domains shown, Chimeric IgG1/kappa) VH: EVQLQQSGPELVKPGASLKISCKASGYSFTDYTMNWVKQSHGKNLEWIGLFNPYNGGISYNQKFKGKATLTVDKSSNTAYMELLSLTSDDSAVYFCARDGRGGFYAMDYWGQGTSVTVSS VL: DIQMTQTTSSLSASLGDRVTISCRASQDISIYLNWYQQKPDGPVKLLIYYTSRLHSGVPSRFSGSGSGTDFSLTISNLEQEDIATYFCQQGYTLPPWTFGGGTKLEIKR	0.06	0.43	0.03	0.05	0.1	0.04	0.05	0.06	1.67	0.03	2.44	2.57	0.05	2.3	0.04	0.04
S009-F1.7.14 human-murine chimeric antibody (antibody, human IgG1, kappa, Chimeric IgG1/kappa) heavy: not shown light: QIVLTQSPAIMSASPGEKVTISCSASSSVSYMYWYQQKPGSSPKPWISRTSNLASGVPARFSGSGSGTSYSLTISSMEAEDAATYYCQQYHSYPPTLGAGTKLELKRTVAAPSVFIFPPSDEQLKSGTASVVCLLNNFYPREAKVQWKVDNALQSGNSQESVTEQDSKDSTYSLSSTLTLSKADYEKHKVYACEVTHQGLSSPVTKSFNRGEC	0.06	0.08	0.05	0.27	0.06	0.04	0.04	0.06	0.3	0.05	2.05	2.59	0.05	1.43	0.05	0.07
S009-F1.56.1 human-murine chimeric antibody (antibody, human IgG1, kappa, V domains shown, Chimeric IgG1/kappa) VH: EVQLQQSGAEVVKPGASVKLSCTASGFNIRHTYMHWVKQRPEQGLEWIGRIDPANGNTEYDPKFQGKATITADTSSNTAYLQLSSLTSEDTAVYYCARDGWYIDVWGAGTTVTVSS VL: DIVMSQSPSSLAVSVGEKVTMSCKSSQSLLYSNNQKNYLAWYQQKPGQSPKLLIYWASTRESGVPDRFTGSGSGTDFTLTISSVKAEDLAVYYCQRYYSYPWTFGGGTKLEIKR	0.05	0.55	0.04	0.12	0.11	0.03	0.05	0.05	1.83	0.05	2.44	2.74	0.05	2.3	0.04	0.06

Results, then the binder that gave them:

OD450 [1]	OD450 [2]	OD450 [3]	OD450 [4]	OD450 [5]	OD450 [6]	OD450 [7]	OD450 [8]	OD450 [9]	OD450 [10]	OD450 [11]	OD450 [12]	OD450 [13]	OD450 [14]	OD450 [15]	OD450 [16]	Binder
0.05	0.47	0.03	0.06	0.1	0.05	0.04	0.06	1.76	0.03	2.38	2.65	0.05	2.31	0.03	0.04	S009-F1.59.1 human-murine chimeric antibody (antibody, human IgG1, kappa, V domains shown, Chimeric IgG1/kappa) VH: EVKLEGSGGGLVQPGGSMMLSCVATGFTFSSYWMNWVRQSPDRGLEWVAEIRLKSNGFAAFYAESVKGRFTISRDDSKSSVYLQMNNLRTEDTGIYYCTYFVHWGQGILVTVSE VL: DIVLTQSPTSLAVSLGQRATISCRTSESVEYFGTILIQWYQQKPGQPPKLLIFGASNVESGVPARFSGSGSGTDFSLNIHPVEEEDIAMYFCQQNRKVPYTFGGGTTLELKR
0.05	0.48	0.04	0.06	0.11	0.05	0.04	0.06	1.79	0.04	2.59	2.61	0.05	2.35	0.04	0.04	S009-F1.62.9 human-murine chimeric antibody (antibody, human IgG1, kappa, V domains shown, Chimeric IgG1/kappa) VH: EVQLQQSGADLVKPGASVKLSCTVFGLNFKDTFMHWVRQRPEQGLEWIGRIDPANDNSIYGPKFQDKATITADTSSNTAYLHLSSLTSEDTAVYYCLYFDNWGHGTTLTVSS VL: DIVMTQAASSEPVTPGESVSISCRSDKSLLHSNGHNYLYWFLQRPGQSPHLLIYRMSNLASGVPDRFSGSGSGTAFTLRISRVEAEDVGVYYCMQHLEYPLTFGAGTKLELKR
